We go through two substances from article PMC4022893.

Data set [1] can be described thus: 125I-FSH binding to CHO-hFSHR membranes ± Compound 5. To be noted: glycan lost; control: glycosylated FSH (about 3-fold more binding with Compound 5).
In data set [2] the target is FSHR of the PathHunter FSHR β-arrestin assay cells (UniProt P23945). The data set can be described thus: split reporter (BiFC, NanoBiT); PathHunter FSHR β-arrestin recruitment assay (DiscoveRx 93-0517C2) in CHO cells; cells stimulated with FSH, Compound 5, both, or the βT60E mutant; recruited β-arrestin normalized to 100% for the maximum response of FSH. Background: Recruitment of arrestin is a read-out of receptor activation apart from second messengers.
FSHR of the PathHunter FSHR β-arrestin assay cells, sequence (P23945 18-695): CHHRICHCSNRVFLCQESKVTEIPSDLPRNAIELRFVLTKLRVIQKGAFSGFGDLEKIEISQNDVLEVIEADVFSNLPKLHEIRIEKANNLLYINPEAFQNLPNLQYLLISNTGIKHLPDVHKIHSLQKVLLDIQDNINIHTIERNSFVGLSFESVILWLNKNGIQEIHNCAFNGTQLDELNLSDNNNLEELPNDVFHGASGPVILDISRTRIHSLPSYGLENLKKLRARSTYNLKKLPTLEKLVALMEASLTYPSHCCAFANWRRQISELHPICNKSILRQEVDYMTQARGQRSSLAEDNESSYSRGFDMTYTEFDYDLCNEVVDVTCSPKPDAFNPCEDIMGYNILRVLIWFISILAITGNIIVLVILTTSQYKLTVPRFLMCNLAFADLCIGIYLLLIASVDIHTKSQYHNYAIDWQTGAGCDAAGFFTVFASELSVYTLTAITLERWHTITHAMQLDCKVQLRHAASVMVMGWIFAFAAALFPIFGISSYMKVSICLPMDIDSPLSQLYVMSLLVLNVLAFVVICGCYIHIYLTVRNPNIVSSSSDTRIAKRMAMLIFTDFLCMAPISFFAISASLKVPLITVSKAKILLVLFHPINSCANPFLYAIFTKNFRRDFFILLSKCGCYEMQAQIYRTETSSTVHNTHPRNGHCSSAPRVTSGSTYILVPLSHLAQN

β-arrestin of the PathHunter FSHR β-arrestin assay cells, sequence (P32121 whole entry): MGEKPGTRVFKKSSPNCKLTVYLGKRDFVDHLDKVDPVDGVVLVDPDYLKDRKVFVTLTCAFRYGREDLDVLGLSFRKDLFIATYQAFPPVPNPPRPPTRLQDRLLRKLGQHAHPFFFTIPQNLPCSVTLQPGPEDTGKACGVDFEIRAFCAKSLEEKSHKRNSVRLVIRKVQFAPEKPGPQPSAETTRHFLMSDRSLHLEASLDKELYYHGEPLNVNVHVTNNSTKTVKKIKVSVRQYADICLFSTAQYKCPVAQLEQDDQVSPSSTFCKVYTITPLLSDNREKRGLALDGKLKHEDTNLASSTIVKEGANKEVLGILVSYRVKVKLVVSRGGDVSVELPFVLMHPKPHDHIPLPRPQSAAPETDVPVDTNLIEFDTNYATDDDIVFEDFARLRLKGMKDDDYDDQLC
FSH α-subunit: αN52D, sequence (chain, as listed by the source N52D): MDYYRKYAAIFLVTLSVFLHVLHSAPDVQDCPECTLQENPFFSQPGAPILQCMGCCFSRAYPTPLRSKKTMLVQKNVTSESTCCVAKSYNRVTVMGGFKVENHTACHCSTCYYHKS

FSH α-subunit: αN52D: the “other: Compound 5 enhancement of FSHR binding” value in data set [1] was “decreases”. Consider “β-arrestin of the PathHunter FSHR β-arrestin assay cells (from UniProt P32121 1-409) (natural protein)”, for which, in data set [2], the β-arrestin recruited with Compound 5 plus FSH at EC100, percent of the maximum with FSH alone amounted to 280% and the β-arrestin recruited with FSH plus a high concentration of Compound 5, percent of the maximum with FSH alone was found to be 280%.
